Laboratory results published in US20260258115A1 (MAPP BIOPHARMACEUTICAL, published 2026).

B1: ADI-14359 R50L Fab (germline reverted variant) (Fab, V domains shown)
VH: QVQLVQSGPALVKPTQTLTLTCTFSGFSLSTSGMCVSWIRQPPGKALEWLALIDWDDDKYYSTSLKTRLTISKDTSKNQVVLTMTNMDPVDTATYYCARATNYDSSGYYSLYFDYWGQGTLVTVSS
VL: not shown
B2: ADI-43648 (antibody, V domains shown)
VH: EVQLVQSGAEVKKPGASVKVSCKASGYTFTSYDINWVRQATGQGLEWMGWMNPNSGNTGYAQKFQGRVTMTRNTSISTAYMELSSLRSEDTAVYYCATRPAALDYWGQGTLVTVSS
VL: QPVLTQPLSVSVALGQTARITCGGNNIGSKNVHWYQQKPGQAPVLIIYRDSNRPSGIPERFSGSNSGNTATLTISRAQAGDEADYYCQVWDSSTWVFGGGTKLTVL

Key:
[1] = biological target: T1, postF (RSV F ΔFP) with a C-terminal HRV 3C cleavage site, 8xHisTag and StrepTagII (Respiratory Syncytial Virus, UniProt P03420 26-109; P03420 147-513); experiment: SPR, postF captured on NTA chip, Fab in solution, steady-state fit
T1 construct: also called postfusion F; not shown: C-terminal HRV 3C cleavage site, 8xHisTag and StrepTagII

[2] = biological target: RSV postfusion F (postF), F ΔFP (Respiratory Syncytial Virus, UniProt P03420 26-513); experiment: BLI (ForteBio Octet), IgG on anti-human IgG biosensors, 100 nM antigen, apparent (IgG) KD
[3] = biological target: Respiratory Syncytial Virus fusion glycoprotein (RSV F) on RSV-A2 virus (Respiratory Syncytial Virus, UniProt P03420 26-574); experiment: cell-based or functional assay
[4] = biological target: RSV prefusion F (preF), DS-Cav1 (Respiratory Syncytial Virus, UniProt P03420 26-513); experiment: BLI (ForteBio Octet), IgG on anti-human IgG biosensors

Row | Binder | fold reduction in affinity relative to ADI-14359 Fab [1] | Kd [2] | Neutralization IC50 (RSV subtype A) [3] | binding result [4]
1 | B1 | > 30 fold |  |  | 
2 | B2 |  | 28.6 nM | > 25 µg/mL | no binding
